Tests used:
[1] = target: T1, mutated human CRTH2 with amino acid substitution (Homo sapiens, UniProt Q9Y5Y4, D194A); assay: Epitope analysis using CHO-S cells which express mutated human CRTH2 with amino acid substitution; assay type: binding; details: mutant D194A; antibody 10 μg/mL; relative to wild-type = 100%
T1 construct: inserting genes encoding various mutants with amino acid substitution obtained by deleting termination codons; expressed in transfected cells; host or cells: CHO-S cells (Lifetechnologies), transient (phmAG1-MNLinker vector)
T1 sequence (Q9Y5Y4 1-395 D194A): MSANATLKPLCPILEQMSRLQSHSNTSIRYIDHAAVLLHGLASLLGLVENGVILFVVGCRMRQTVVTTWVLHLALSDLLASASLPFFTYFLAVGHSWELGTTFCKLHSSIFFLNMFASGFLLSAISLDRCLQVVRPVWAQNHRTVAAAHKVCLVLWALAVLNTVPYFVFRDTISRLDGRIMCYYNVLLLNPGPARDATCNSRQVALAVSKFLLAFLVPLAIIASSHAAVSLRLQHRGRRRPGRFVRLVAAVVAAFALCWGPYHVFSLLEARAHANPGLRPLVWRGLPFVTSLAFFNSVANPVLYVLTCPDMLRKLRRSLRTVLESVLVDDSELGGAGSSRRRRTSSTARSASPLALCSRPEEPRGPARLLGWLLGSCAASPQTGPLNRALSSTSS
Summary of the method: (§1)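 CHO-S cells transiently expressing alanine-substituted human CRTH2 extracellular mutants, C-terminally Azami-Green tagged, 24 h post-transfection. Antibodies at 10 μg/mL, 4 °C 1 h, then Alexa647 anti-IgG secondary 4 °C 1 h; flow cytometry on Azami-Green-positive cells. Reactivity = Alexa647 intensity divided by Azami-Green intensity.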

[2] = target: T2, mutated human CRTH2 with amino acid substitution (Homo sapiens, UniProt Q9Y5Y4, G192A); assay: as above; assay type: binding; details: mutant G192A; antibody 10 μg/mL; relative to wild-type = 100%
T2 construct: inserting genes encoding various mutants with amino acid substitution obtained by deleting termination codons; expressed in transfected cells; host or cells: CHO-S cells (Lifetechnologies), transient (phmAG1-MNLinker vector)
T2 sequence (Q9Y5Y4 1-395 G192A): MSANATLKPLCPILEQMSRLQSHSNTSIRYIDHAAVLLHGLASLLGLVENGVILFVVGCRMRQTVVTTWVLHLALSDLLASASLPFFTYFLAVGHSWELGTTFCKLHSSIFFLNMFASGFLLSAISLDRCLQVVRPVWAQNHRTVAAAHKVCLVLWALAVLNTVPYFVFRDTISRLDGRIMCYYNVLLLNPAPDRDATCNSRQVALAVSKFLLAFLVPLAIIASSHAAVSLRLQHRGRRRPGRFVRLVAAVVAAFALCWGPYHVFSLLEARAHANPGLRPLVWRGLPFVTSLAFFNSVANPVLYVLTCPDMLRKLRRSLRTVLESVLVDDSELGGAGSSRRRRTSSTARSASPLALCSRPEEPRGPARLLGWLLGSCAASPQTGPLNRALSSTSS
Summary of the method: as §1

reactivity against cells expressing mutated human CRTH2 [1]: lost | reactivity against cells expressing mutated human CRTH2 [2]: lost
B1: LV0HV1: humanized Lym2 antibody, VL LV0 (SEQ ID NO: 33), VH HV1 (SEQ ID NO: 51) (antibody, V domains shown)
VH: EVQLVESGGGVVQPGRSLRLSCAASGFTFSNYYMAWVRQAPGKGLEWVATISYDGSSTYYRDSVKGRFTISRDNAKNSLYLQMNSLRAEDTATYYCARHRGYYYSGAGYFDYWGQGTMVTVSS
VL: DIVMTQTPLSLPVTPGESASISCRSSQSLEYSDGYTYLEWYLQKPGQSPQVLIYGVSNRFSGVPDRFSGSGSGTDFTLKISRVEAEDVGVYYCFQATHDPLTFGQGTKLEIK
